Substitutions are numbered along the chain they refer to. Blank lines part the entries; values can stand above or below the binder they belong to.
Columns and labels:
human proGDF11 = target: T1, human proGDF11 (human, UniProt O95390 25-407, biotinylated (NHS-PEG4-Biotin), site not stated); assay: cell-based or functional assay
T1 sequence: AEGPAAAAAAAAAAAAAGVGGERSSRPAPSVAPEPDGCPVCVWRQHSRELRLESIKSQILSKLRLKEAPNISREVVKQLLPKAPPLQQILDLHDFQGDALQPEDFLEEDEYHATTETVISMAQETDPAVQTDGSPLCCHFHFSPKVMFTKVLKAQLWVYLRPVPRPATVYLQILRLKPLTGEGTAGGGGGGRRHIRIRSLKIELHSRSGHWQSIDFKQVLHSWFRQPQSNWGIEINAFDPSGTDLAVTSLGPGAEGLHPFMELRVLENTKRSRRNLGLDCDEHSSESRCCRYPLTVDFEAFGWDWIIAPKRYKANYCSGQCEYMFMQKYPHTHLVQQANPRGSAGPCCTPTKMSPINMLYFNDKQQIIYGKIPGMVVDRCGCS

murine proGDF11 = target: T2, murine proGDF11 (mouse, UniProt Q9Z1W4 25-405, biotinylated, site not stated); assay: cell-based or functional assay
T2 sequence: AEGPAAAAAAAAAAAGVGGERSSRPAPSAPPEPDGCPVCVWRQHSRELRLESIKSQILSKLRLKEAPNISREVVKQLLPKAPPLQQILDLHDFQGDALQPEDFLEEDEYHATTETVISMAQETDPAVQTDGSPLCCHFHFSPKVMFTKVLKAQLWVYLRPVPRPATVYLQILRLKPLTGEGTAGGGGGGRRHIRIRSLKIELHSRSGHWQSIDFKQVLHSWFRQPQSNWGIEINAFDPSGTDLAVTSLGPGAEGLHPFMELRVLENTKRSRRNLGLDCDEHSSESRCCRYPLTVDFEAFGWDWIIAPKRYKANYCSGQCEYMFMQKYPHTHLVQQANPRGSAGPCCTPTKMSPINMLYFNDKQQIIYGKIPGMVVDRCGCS

human proGDF11 ARM8 = target: T3, human proGDF11 ARM8 (human, biotinylated, site not stated); assay: ELISA, biotinylated antigen on neutravidin plate
T3 construct: GDF11 having the GDF8 arm domain
T3 chain: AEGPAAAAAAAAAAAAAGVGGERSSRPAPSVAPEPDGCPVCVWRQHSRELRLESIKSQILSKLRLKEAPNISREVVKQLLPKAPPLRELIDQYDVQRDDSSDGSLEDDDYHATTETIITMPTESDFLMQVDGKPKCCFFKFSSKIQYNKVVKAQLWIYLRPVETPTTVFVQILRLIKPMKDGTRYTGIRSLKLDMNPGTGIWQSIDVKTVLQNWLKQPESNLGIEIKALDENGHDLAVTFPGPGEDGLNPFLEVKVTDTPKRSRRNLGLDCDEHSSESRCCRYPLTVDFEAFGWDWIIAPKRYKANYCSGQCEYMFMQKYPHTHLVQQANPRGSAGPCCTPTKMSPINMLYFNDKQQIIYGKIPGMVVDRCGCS
Source text: (§1) Candidate clones were converted to human IgG1 format. Full-length IgG antibodies were further characterized by ELISA for binding to the human and murine pro- and latent-forms of myostatin and GDF11. Antibodies were also screened for binding to the Myostatin prodomain (SEQ ID NO: 85), proTGFDβ1 (human and murine), the mature growth factor of Myostatin (SEQ ID NO: 89), the GDF11 mature growth factor (SEQ ID NO: 90), and proActivin A (SEQ ID NO: 84). Chimeric constructs which swapped portions of the prodomains of Myostatin and GDF11 were designed and produced. For example proGDF11 arm8 (SEQ ID NO: 112) refers to GDF11 having the GDF8 arm domain, and prodomain GDF11 arm8 (SEQ ID NO: 114) refers to the GDF11 prodomain having the GDF8 arm domain. These chimeric proteins were assayed for interaction with screening antibodies by ELISA and allowed for the assessment of binding of antibodies to the ARM or straight jacket portions of the GDF11 prodomain complex. Antibodies were selected based on their cross-reactivity with pro- and latent human and murine GDF11, with no interactions with GDF8, Activin, or TGFβ proteins. Activin A is a homodimer of inhibin-beta A subunits. For example, Inhibin-beta A can heterodimerize with other proteins to produce different Activin proteins.
(§2) Enzyme-linked immunosorbent assay (ELISA) analysis is carried out to assess antibody binding. 96-well ELISA assay plates are coated with neutravidin, a deglycosylated version of streptavidin with a more neutral pH. Target proteins are expressed with or without histidine (His) tags and subjected to biotinylation. Biotinylated target proteins are incubated with neutravidin-coated ELISA assay plates for two hours at room temperature and unbound proteins are removed by washing three times with wash buffer (either 25 mM Tris, 150 mM NaCl, 0.05% TWEEN®-20, or 20 mM Hepes pH 7.5, 500 mM NaCl, 0.05% TWEEN®-20). Primary antibodies being tested are added to each well and allowed to incubate at room temperature for 1 hour or more. Unbound antibody is then removed by washing three times with wash buffer. Secondary antibodies capable of binding to primary antibodies being tested and conjugated with detectable labels are then incubated in each well for 30 minutes at room temperature. Unbound secondary antibodies are removed by washing three times with wash buffer.

[1] = target: T4, human prodomain GDF11 ARM8 (human, biotinylated, site not stated); assay: ELISA, biotinylated antigen on neutravidin plate
T4 construct: GDF11 prodomain having the GDF8 arm domain; also called human GDF11 ARM8 prodomain
T4 chain: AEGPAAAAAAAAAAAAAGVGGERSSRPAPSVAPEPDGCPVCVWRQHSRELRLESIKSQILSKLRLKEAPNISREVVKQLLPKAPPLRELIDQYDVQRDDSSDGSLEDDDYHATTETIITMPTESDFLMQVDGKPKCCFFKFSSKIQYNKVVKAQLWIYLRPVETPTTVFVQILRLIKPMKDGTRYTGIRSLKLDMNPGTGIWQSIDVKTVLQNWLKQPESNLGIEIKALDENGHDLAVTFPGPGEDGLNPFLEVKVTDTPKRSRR
Source text: as §1, §2

human mature GDF11 = target: T5, human mature GDF11 (human, UniProt O95390 299-407, biotinylated, site not stated); assay: ELISA, biotinylated antigen on neutravidin plate
T5 construct: Growth factor domain; also called GDF11 mature growth factor
T5 sequence: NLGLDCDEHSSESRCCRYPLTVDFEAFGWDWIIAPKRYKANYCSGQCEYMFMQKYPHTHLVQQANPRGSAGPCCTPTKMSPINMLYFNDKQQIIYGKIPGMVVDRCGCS
Source text: as §1, §2

- Human proGDF11 % Inhibition (proGDF11 activation assay, CAGA luciferase reporter in 293T cells) (human proGDF11): 100%
- Murine proGDF11 % inhibition (proGDF11 activation assay, CAGA luciferase reporter in 293T cells) (murine proGDF11): 95%
- binding result (human proGDF11 ARM8): no binding
- binding result [1]: no binding
- binding result (human mature GDF11): no binding
B1: GDF11 Inh-2 (antibody, V domains shown)
VH: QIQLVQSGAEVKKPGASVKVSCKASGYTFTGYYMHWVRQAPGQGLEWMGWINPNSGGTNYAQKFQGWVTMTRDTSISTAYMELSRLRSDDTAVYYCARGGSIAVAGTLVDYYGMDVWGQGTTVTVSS
VL: DIQMTQSPSSLSASVGDRVTITCQASQDISNYLNWYQQKPGKAPKLLIYDASNLETGVPSRFSGSGSGTDFTLTISSLQPEDVATYYCQKYSTAPLTFGGGTKVEIKR
notes: also called Clone GDF11 Inh-2

- Human proGDF11 % Inhibition (proGDF11 activation assay, CAGA luciferase reporter in 293T cells) (human proGDF11): 94%
- Murine proGDF11 % inhibition (proGDF11 activation assay, CAGA luciferase reporter in 293T cells) (murine proGDF11): 87%
- binding result (human proGDF11 ARM8): no binding
- binding result [1]: no binding
- binding result (human mature GDF11): no binding
B2: GDF11 Inh-4 (antibody, V domains shown)
VH: QVQLVQSGAEVKKPGASVKVSCKASGYTFTSYGISWVRQAPGQGLEWMGWISAYNGNTNYAQKLQGRVTMTTDTSTSTAYMELRSLRSDDTAVYYCARTPPLWFGEYGAFDIWGQGAMVTVSS
VL: B1 VL with E81D, V83F, K90Q, Y91S, S92Y, A94T, L96I, G100Q, K103R, V104L
notes: also called Clone GDF11 Inh-4
